The values below are quoted from earlier work in PMC4278352.

For the series, the target named is PikAIII docking domain (Streptomyces venezuelae) (UniProt Q9ZGI3).
Chain of UniProt Q9ZGI3 (Q9ZGI3 1-34): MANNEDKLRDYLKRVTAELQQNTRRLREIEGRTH

Take “PikAII docking domain (from UniProt Q9ZGI4)”: the dissociation constant Kd is 5 µM.
